Experimental data reported in patent publication US20050142568A1 (published 2005).

B1: full-length ^35S-methionine labeled CPS-6 (enzyme, C. elegans, UniProt Q95NM6 1-308, looked up)
chain: MIGKVAGTAAIAGISFLAGKYSNDDLPIFRNVQSATNVPMNQIQVSEPMTVKPASLNADAMGPSRSAEIMKHGYPGFTNVRTYEDFVLSYDYKTRTAHWVCEHLTPERLKHAEGVDRKLCEFKPDITFPQKFLSQNTDYKCSGFDRGHLAAAGNHRKSQLAVDQTFYLSNMSPQVGRGFNRDKWNDLEMHCRRVAKKMINSYIITGPLYLPKLEGDGKKYIKYQVIGDNNVAVPTHFFKVALFEVTPGKFELESYILPNAVIEDTVEISKFHVPLDAVERSAGLEIFARLDPKSIVKENGAKKGGLLW
modifications: 35S-methionine labelled
notes: also called ^35S-CPS-6
B2: GST-CPS-6 (other, C. elegans, UniProt Q95NM6 1-308, looked up)
chain: B1 chain
notes: GST at the N-terminus as in pGEX vectors; also called CPS-6 GST-fusion protein; not shown: glutathione S-transferase tag encoded by vector pGEX4T-2
B3: GST-CRN-4 (other, C. elegans, UniProt Q10905 1-298, looked up)
chain: MAYQHCPFDTLLILDFETTSDAANQDYPCEVIQFAIVAYDVPNDKIREDISFNKYVKPVLNRTLTKNCVDFTGIPQRSIDTADTFDVVYEQFQQWLITLGLEEGKFAFVCDSRQDLWRIAQYQMKLSNIQMPAFFRQYINLYKIFTNEMDRMGPKELSATTNIGKMNEYYDLPTIGRAHDAMDDCLNIATILQRMINMGAKVTVNELLTCCASWRRQPLVYNKEWRSSFMDAGKIFERVLPLVVTTIRAGDFRLEMYGVCRYCRKGMDVCGTSHQQTPHDLYKNEEDPIHFAKIAGYY
notes: also called CRN-4 GST-fusion protein; not shown: glutathione S-transferase tag encoded by vector pGEX4T-2

Tests used:
Experiment in all cases: GST pull-down, 35S-Met protein vs GST fusion; - means no detectable binding (footnote a)
GST-CPS-6 = biological target: B2
Procedure: (§1) GST fusion protein pull-down assays were performed as described in J. Parrish, H. Metters, L. Chen, D. Xue, Proc. Natl. Acad. Sci. U.S.A. 97, 11916 (2000). Purified GST or GST-fusion proteins (5 μg each) immobilized on glutathione sepharose beads were incubated with ³⁵S-Methionine labeled proteins at 4° C. for 2 hours. The beads were washed extensively and the bound proteins were resolved on a 12% SDS-PAGE and visualized by autoradiography. [0103] cDNAs corresponding to the ORFs were cloned into the pPD129.36 vector via its Nhe I and Xho I sites or the Xho I site alone. Full-length cDNAs were subcloned into the pGEX4T-2 vector for generating GST fusion proteins and for further protein purification and into the pcDNA3.1 vector for in vitro transcription/translation experiments.
(§2) ^aInteractions were evaluated relative to background binding of ³⁵S-Methionine labeled Luciferase to GST-fusion proteins and ³⁵S-Methionine labeled proteins to GST. “−” indicates no detectable binding, “+” indicates an interaction consistently observed above background levels, and “++” indicates a strong interaction. ^bBecause ³⁵S-Methionine labeled CRN-1 binds GST tightly, it was not possible to evaluate interactions between ³⁵S-CRN-1 and various GST-fusion proteins. ND, not determined.

GST-CRN-6 = biological target: T1, GST-CRN-6 (C. elegans, UniProt P08515 1-218 = GST; P34508 1-373)
T1 construct: Two crn-6 cDNAs (700 bp and 1.1 kb) were isolated; the longer one made the GST fusion; also called CRN-6 GST-fusion protein
Procedure: as §1, §2

GST-NUC-1 = biological target: T2, GST-NUC-1 (C. elegans, UniProt Q17778 22-375)
T2 construct: also called NUC-1 GST-fusion protein; not shown: glutathione S-transferase tag encoded by vector pGEX4T-2
T2 sequence (looked up): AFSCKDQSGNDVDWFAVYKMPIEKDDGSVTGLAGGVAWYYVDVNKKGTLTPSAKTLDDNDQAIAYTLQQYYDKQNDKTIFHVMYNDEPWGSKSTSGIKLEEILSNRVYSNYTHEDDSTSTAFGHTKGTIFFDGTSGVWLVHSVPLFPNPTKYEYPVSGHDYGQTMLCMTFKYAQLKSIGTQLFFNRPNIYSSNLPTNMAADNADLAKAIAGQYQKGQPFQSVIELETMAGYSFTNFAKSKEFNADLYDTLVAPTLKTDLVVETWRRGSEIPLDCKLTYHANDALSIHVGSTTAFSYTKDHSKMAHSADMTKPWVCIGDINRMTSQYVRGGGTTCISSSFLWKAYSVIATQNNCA
Procedure: as §1, §2

GST-CRN-3 = biological target: T3, GST-CRN-3 (C. elegans, UniProt G5EBX6 1-876)
T3 construct: also called CRN-3 GST-fusion protein; not shown: glutathione S-transferase tag encoded by vector pGEX4T-2
T3 sequence: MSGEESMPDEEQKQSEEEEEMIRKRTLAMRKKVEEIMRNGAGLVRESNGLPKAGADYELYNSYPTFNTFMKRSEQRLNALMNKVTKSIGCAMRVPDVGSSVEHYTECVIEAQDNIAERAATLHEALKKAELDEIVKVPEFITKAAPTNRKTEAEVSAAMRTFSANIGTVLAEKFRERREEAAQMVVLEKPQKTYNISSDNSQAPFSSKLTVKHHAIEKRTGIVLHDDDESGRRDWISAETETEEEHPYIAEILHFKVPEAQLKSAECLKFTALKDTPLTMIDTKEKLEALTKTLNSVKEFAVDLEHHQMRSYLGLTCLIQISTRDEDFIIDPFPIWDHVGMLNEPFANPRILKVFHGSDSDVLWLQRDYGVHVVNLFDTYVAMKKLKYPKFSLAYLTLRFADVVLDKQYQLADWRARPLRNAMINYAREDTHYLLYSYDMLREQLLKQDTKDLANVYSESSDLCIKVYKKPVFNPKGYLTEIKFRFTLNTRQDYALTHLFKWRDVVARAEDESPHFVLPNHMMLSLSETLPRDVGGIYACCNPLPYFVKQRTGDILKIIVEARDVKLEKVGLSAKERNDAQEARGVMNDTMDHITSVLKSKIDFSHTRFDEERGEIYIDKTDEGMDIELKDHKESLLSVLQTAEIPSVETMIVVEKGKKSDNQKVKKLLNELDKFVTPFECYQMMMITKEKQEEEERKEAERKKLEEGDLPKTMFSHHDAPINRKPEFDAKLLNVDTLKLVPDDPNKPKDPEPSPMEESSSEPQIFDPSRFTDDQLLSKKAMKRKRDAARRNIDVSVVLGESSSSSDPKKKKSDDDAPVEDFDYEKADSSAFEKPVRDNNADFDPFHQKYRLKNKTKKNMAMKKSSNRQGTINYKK
Procedure: as §1, §2

[1] = biological target: T4, ^35S-Methionine labeled NUC-1 (C. elegans, UniProt Q17778 22-375, 35S-methionine labelled)
T4 sequence (looked up): T2 sequence (looked up)
Procedure: as §1, §2

[2] = biological target: T5, ^35S-Methionine labeled CRN-3 (C. elegans, UniProt G5EBX6 1-876)
T5 sequence: T3 sequence
Procedure: as §1, §2

[3] = biological target: T6, ^35S-Methionine labeled CRN-6 (C. elegans, UniProt P34508-2 18-373, limits assumed, 35S-methionine labelled)
T6 sequence (looked up): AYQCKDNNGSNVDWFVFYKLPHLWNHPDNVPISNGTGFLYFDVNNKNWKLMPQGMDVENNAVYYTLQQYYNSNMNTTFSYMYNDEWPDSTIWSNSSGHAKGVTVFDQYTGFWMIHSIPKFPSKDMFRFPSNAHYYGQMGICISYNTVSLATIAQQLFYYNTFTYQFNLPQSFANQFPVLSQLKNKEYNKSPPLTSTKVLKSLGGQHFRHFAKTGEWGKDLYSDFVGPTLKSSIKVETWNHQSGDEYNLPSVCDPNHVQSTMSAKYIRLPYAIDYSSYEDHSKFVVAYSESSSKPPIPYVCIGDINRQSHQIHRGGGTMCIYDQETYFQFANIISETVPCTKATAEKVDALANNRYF
Procedure: as §1, §2

Measured: binding result

B1
no binding: GST-CPS-6 | GST-CRN-6 | GST-NUC-1 | GST-CRN-3

B2
no binding: [1] | [2] | [3]

B3
no binding: [2] | [3]
